From the DeepSol protein solubility set

Assay: soluble on expression in E. coli; label from the status in PepcDB or PDB records

Row | Sequence | soluble on expression in E. coli
1 | MENSDVINFSCLEKELHSALQADRKYQRENDAKFRALNQKVASYEEFRDIVLASHLKPLDRNDISGSPRKQPWNPVACRTNYVCASSEQVQPQLSEVQPRSASEFIRDWRRFAGCSFEKYSLLVSLGGEALQKIFSTEIGLGLLGEFLLILSQCLKSGDEDRVTGVLDGLSKTGRFSINLSLLSQAEQEACEELFNKLKVAAGECHPYKDNSNTSVVCEAGLTHMEDNKTDITTTLKELAGKYGTEK | not soluble
2 | MENSNENDIVLTWWDWGHFVTYYARRSPVAQGSPNSGVAGYYLGLVDNGWAQSLGVDYVIVSLYDILKFEAIVDTAKLSRKWENISRADYGVDFLKLTESTGSILRFDSQYSTLIVKEGNIRVILSGKVVYPREAIIESNGRIKNLKYPARSGVYVYVNLDYGYAILEHHHHHH | not soluble
3 | MENSRLMQSMPRTPKFEEEKKTDKDKEKEEKERNGKKTELARAQNKKAQEKDMPRFKQGENQIDTATETYELTSELGQGSFGAVFGVTRKSDKRHFAMKCESVNMKRAILPHEAGVLLALNHLKSPHFLEMVDHGIVNNRFLFVVLKLVGMNLWDMRAHLPDKKYTLTTTLRIAEQTLAGLRDLHRVGFLHRDIKPPNFAIGREEDDTYHTVFLLDFGLCRKIAMKGKDLRTPRKECAFRGTTRYAALAAHDNKEQSRKDDIESWWYMIAEMIVFDIPWKQFRGTDRDNVRGMKWRLRADETYFKFLFRKCCYEQMSAILLYLDQLSYSSIPDYDFVYHHLQAAAIVNNCSAKSPPDWDPKSQHYKGPIYKEREPYIVKSLE | not soluble
4 | MEPAGPCGFCPAGEVQPARYTCPRCNAPYCSLRCYRTHGTCAENFY | soluble
5 | MEPGVDGARKQIAEVVAERIERLILDGVLKAGQALPSERRLTEKLGVSRTALREGLRVLWARQIIHTAQGKGSYVAQISQVDAGPLVHLFNSQPRTLYDLLEVRALLESESARLAAIRGTDADFIMIRRRYDEMLAAHGRETDSATHAHLDHAFHLAICQASHNAVLVHTLQSLTDLLLGSVFACVNNLYHREPHKRHIDQQHERLFLAVLAREPEQAHQAARAHVDSVRQSLAEIEQEEQRLVRATLRLEGWV | not soluble
6 | MEPTENLDVCLATLRDTDRDRYLACLLSPADKRNALAALYAFNAEIARIRDSVREALPGEVRMQWWRDLVDGNPHGDSQSHPVAAALLTTIEHYRLPRPVLGNMIEARIFDLYDDLFEDRNALEGYAGETASALIQLASLVLSAEDAAHSAEAAGHAGVAQAMAGMLLLMPLHRRRGQVYIPADMLAAAGLDRETFLAGQDRQRIGIAVEIFAAHALDHIEKARRATISKNLFAAYLPVALSGPVIAAARKAGAGVFDGDLQLSQLRRQWLLAKASFLKRF | not soluble
7 | MEPYIKALITDSYEQNKNFFRCRFMKNRRGDECNFVGTFSDTLTHFSIHTKVYLFECEGCTKQVVDFMDLVEHRSPSTGAICRGTVENMRQLRLERMKTIDAHRCRNVFIVGATRSEFEDYLRYKNTHGKQQSFGTPLYNDNEEEQTRHQPQQQRSSTPLAPTTPTPPPPTQAPTNHRELLLDFPLPVDFSRPPPVIPPEYFFNAPSVSQQHHQRSQYQHYAPQPQGNRTPGYVARPITPHGNPKPQNYQIGGGWNPYANPPSAKDAPATVRDNRSPSRPRGDFRRDRSQSRGAETHCQQSYQPPADPLQDRSRNGRSPPMGTHSHYGQNAKPAQNGNTSHYELRSRSRGRATVPMNANFRAGHQTGSSSRLESRSRATASVGARAPSRAPAPSSTSRETRSTRRSPSKGPSAPAYTLPFGGSTPNHEPMDLELEDPVPPPRPDRPRASTSLNTSVSQIKRNEVQTGVYNIRPQRVQDTVQKARTAVGYAGTRNRSPLREADAEEIAATEALKNRFAVKSRGTAKAKANSNRGAALLESIEPTNRKIETAEEREKKQNDLYLEKMRKIREKQRLEQEKIDDVVVDSGNLPTIAPNAAGTPPPQSVAAMLEPKEESEEDEPSTSASVPFQRRMNSPQTHATSYARRSDGKRHPSKSRSSRDDRANRRDRDRDSDGRCGDDRRRDHRSHPYERH | not soluble
8 | MEQIERIAQLYPVIMRVMGRIRSLVHDGMDLTYNQYKMLLTIYDKGSCPLNLLARELGIAMSSASEMVERLVNLGIVYRAVDEDNRRQVIIYTTDRGEELIRELRHGIIENYRQLFARLPEGDQERLATAFETIADVLGKLE | not soluble
9 | MERDERPPSGGGGGGGSAGFLEPPAALPPPPRNGFCQDELAELDPGTNGETDSLTLGQGHIPVSVPDDRAEQRTCLICGDRATGLHYGIISCEGCKGFFKRSICNKRVYRCSRDKNCVMSRKQRNRCQYCRLLKCLQMGMNRKAIREDGMPGGRNKSIGPVQISEEEIERIMSGQEFEEEANHWSNHGDSDHSSPGNRASESNQPSPGSTLSSSRSVELNGFMAFRDQYMGMSVPPHYQYIPHLFSYSGHSPLLPPQARSLDPQSYSLIHQLMSAEDLEPLGTPMLIEDGYAVTQAELFALLCRLADELLFRQIAWIKKLPFFCELSIKDYTCLLSSTWQELILLSSLTVYSKQIFGELADVTAKYSPSDEELHRFSDEGMEVIERLIYLYHKFHQLKVSNEEYACMKAINFLNQDIRGLTSASQLEQLNKRYWYICQDFTEYKYTHQPNRFPDLMMCLPEIRYIAGKMVNVPLEQLPLLFKVVLHSCKTSTVKE | not soluble
10 | MERHGSELQGEVVFTTTSTANNNVKRAVEYFEDDNQDDALTSTSSGNSTQKESSPFTDFDDVPPPPVAPETPAPAQNRRESASPERQFLDESHLGGIGSPLSQSTRLDETFIEEYSIELDTSGNSRNNISSAASPGPKSPFDDDFTDTAAPVAPPPAPTKAAEEYRRQPHQNPFDEEEEEESQFGGGTLSGRDPFDEDSGNSNENQLREKKLHKKEQLAHRLSSSSEEIVEASIHEDEPIVMAQIPEEKPKPKAIPAFDNAYDADFDNSPPLHHYSAVHLETGLSPLEEAQRALRANRARHKPSNVSLAEEAKLAARQRYSNASDIRREEEEEVVEEDPAVVVPVLRKDLEVEEAPKSVRPPRYRKSREIEEPVVVDRFVEEEVDEKEDIDAIFEKYRKVRKDIFEKNGVENLKNLNFFRTSVSADPKSHTPILMADEYKEPQKQVPAPVVVAQESPILKRRNSLVPSRISGRQSTRRSVTSVRSMRGKRKTRAIPEFFDLTRHQNIRLRAPATKKKRISLHRVEDTEAVVELLNGQKVEVACRSDVISRDVFSLIVQNMNINEHVFFGLSFLRDGEHYFIEDHQRLEKFAPSGWKSVARVGVKVPYVLHLRFKFYPQILDFIKTDVTMNELYLQCRRDVLEERIQPKRDAAFELAALALQAEFGNRPPPVITDYFDIQHYLPKKYSSFEDQSRLKNILAELHGHYAGTRISEAKHKYIQICQRHPDFGAHVHRVFRTKPTSAHGASPFDPDTGSSLWIGIMPRGISIYEQQGGAREVIAEHVWPQTQTLQFDKKRFVIVAVGAHDEQIESTFYTDHHSKSSYFVRFAASQHRWMMKMRQWKSTLRHENTIQAMPDVIVEGQTIPPAPIRQGLEESPPSTPLLASADQIFAKMSVSQEKPAANRPAELPPPAPSSKFAAQYDTVDEGIVCDSQAENFERVDSTDNGNVTPRGMQFDILLVKDPANGLGLTLVDGNLNGVPGVYVKLVADNGAGMKAIKPKWDILTPCDSTQIFASQNQIFPSVSAEMLASAGRKKSFTSSSGDLLNAPNRTNGQSRTPPAPRKAANRRQRAVSDFGAIGDALPTLDGDNLINIKAISGLHLDESDEEKGEYRLPTTSMYAFDRDDDLQASIKESKKPAPEPKSGELRKYRYARRSNLEIAEEIEEEAVESSDDDGQIDEGKRVIDVELDRNENGSLGVQIASLSGRVCIKQLTSEPAISHPDIRVGDVLLYVNGIAVEGKVHQEVVAMLRGGGDRVVLGVQRPPPAYSDQHHASSTSASAPLISVMLLKKPMATLGLSLAKRTMSDGIFIRNIAQDSAASSEGTLRVGDRLVSLDGEPVDGFTPATILEKLKLVQGPVQITVTREQTA | not soluble
11 | MERIETIPTDKEHLSQDEVIRLASTPCSAPALKRAFLFSCLTALRKSDIKKLTWEEIQPYGSDGVMYVTTRMQKTKDIVHNPISEEALELIGYSPDKRGKVFPDFKDSMTQAPLKNWLKDAGITKHISYHCSRHSFACLQLDAGTSIAVVQRYLGHKNVATTEVYAKISDAQKRASVGLEHHHHHH | soluble
12 | MERKINRREKEKEYEGKHNSLEDTDQGKNCKSTLMTLNVGGYLYITQKQTLTKYPDTFLEGIVNGKILCPFDADGHYFIDRDGLLFRHVLNFLRNGELLLPEGFRENQLLAQEAEFFQLKGLAEEVKSRWEKEQLTPRETTFLEITDNHDRSQGLRIFCNAPDFISKIKSRIVLVSKSRLDGFPEEFSISSNIIRFKYFIKSENGTRLVLKEDNTFVCTLETLKFEAIMMALKCGFRLLTSLDCSKGSIVHSDALHFIK | soluble
13 | MERNDIINFKALEKELQAALTADEKYKRENAAKLRAVEQRVASYEEFRGIVLASHLKPLERKDKMGGKRTVPWNCHTIQGRTFQDVATEISPEKAPLQPETSADFYRDWRRHLPSGPERYQALLQLGGPRLGCLFQTDVGFGLLGELLVALADHVGPADRAAVLGILCSLASTGRFTLNLSLLSRAERESCKGLFQKLQAMGNPRSVKEGLSWEEQGLEEQSGGLQEEERLLQELLELYQVD | soluble
14 | MERTGFLEYVLNYVKKGVELGGFPEDFYKILSRPRRVLIVNIPVRLDGGGFEVFEGYRVQHCDVLGPYKGGVRFHPEVTLADDVALAILMTLKNSLAGLPYGGAKGAVRVDPKKLSQRELEELSRGYARAIAPLIGDVVDIPAPDVGTNAQIMAWMVDEYSKIKGYNVPGVFTSKPPELWGNPVREYATGFGVAVATREMAKKLWGGIEGKTVAIQGMGNVGRWTAYWLEKMGAKVIAVSDINGVAYRKEGLNVELIQKNKGLTGPALVELFTTKDNAEFVKNPDAIFKLDVDIFVPAAIENVIRGDNAGLVKARLVVEGANGPTTPEAERILYERGVVVVPDILANAGGVIMSYLEWVENLQWYIWDEEETRKRLENIMVNNVERVYKRWQREKGWTMRDAAIVTALERIYNAMKIRGWI | soluble
15 | MESGKMAPPKNAPRDALVMAQILKDMGITEYEPRVINQMLEFAFRYVTTILDDAKIYSSHAKKPNVDADDVRLAIQCRADQSFTSPPPRDFLLDIARQKNQTPLPLIKPYAGPRLPPDRYCLTAPNYRLKSLIKKGPNQGRLVPRLSVGAVSSKPTTPTIATPQTVSVPNKVATPMSVTSQRFTVQIPPSQSTPVKPVPATTAVQNVLINPSMIGPKNILITTNMVSSQNTANEANPLKRKHEDDDDNDIM | soluble
16 | MESKQPEDIHQDCELKQDELISKLQHSQQNFDNIKKILANFEKENENLADENEILKTRIASLEKDVKQEKNATKMAKSLNEETINELTLSEDLIESLKKQFQASKIELKEEILSKNKVEKDYSNDKRYFLEREQYLLITMESMESGKLEHEQQTEIMNKDVEELKIRVKELEATDLSEKNIELERQVGKLTAQLQDFESSRGYEQELILSQLEVQKRKLDKQLIDLQSKLERNPELVEFDKLHEELQTERMNMPVQVCYVHVSFIHKDIENLIYRKMNNNK | not soluble
17 | MESLNEYMDKIINRLKAVNEKDELVDEGMRKLQKCQEKIMKTRIDAQKHIDERHEQQSFEQQLLNKNMFETEQLEEKLKRLDDENKIGNEREFNKKLEAISAKWTDDVNLLKTTPNEPNDGNRKKLSNLSNILV | not soluble
18 | MESPNMNQPKINSTAGCALPPPNEMILKWAAERPNEVYLKQIINRQFVEFTYAEVADQALKLVSALRGLGIQPGDKVALVSKNCAE | not soluble
19 | MESSTDGQVVPQEVLNLPLEKYHEEADDYLDHLLDSLEELSEAHPDCIPDVELSHGVMTLEIPAFGTYVINKQPPNKQIWLASPLSGPNRFDLLNGEWVSLRNGTKLTDILTEEVEKAISKSQ | soluble
